According to the RNAGym collection of RNA variant scans (doi:10.7554/elife.90254):

B1: OR4K15 (parent)
chain: GUUAACGGUCAUAGGCCAUGGAAACUAGGAGCACCAUUUCGCUGCCAGUGAAGAAAUGAACAAAGAAAAUCUGGGCCAGGCAGGCAUCAAAAGAAAUAGUCUUGCGCUCAACCAGAAAGUCUGUAAUCAUUUUAAGGGUA

Variants of: B1
Experiment: self-cleavage, relative activity (ratio to wild type); higher = more cleavage; in vitro, sequencing; the parent is a self-cleaving ribozyme

Variant | self-cleavage
A114G G115U | 0.02
U122C G136U | 1.86
U122A U139C | 0.94
A118G A134G | 0.71
U124C G137C | 0.78
A117G U133C | 1.85
C128U U130C | 0.55
U124A U131C | 0.36
C128A | 0.84
C128G | 0.45
C128U | 0.85
U120C U139G | 1.36
U120C U139A | 0.85
G115U A129U | 0.03
A114U G137U | 0.3
A117U U139C | 1.57
U127A C128U | 1.78
U130A U139A | 0.89
G115U U130C | 0.07
A129G A140G | 1.24
U124A U132G | 0.61
A129G G137A | 0.54
A129G G137U | 1.7
A118G G123A | 0.58

Variant | self-cleavage
A114G U127C | 0.11
A118G U132A | 1.11
A118G U132C | 0.18
U130A A140G | 1.02
A111U A126G | 0.06
A111U A118G | 0.05
A116C A129G | 0.05
U120A A129U | 0.57
C121U U131C | 2.02
A111G C128A | 0.01
U122A A135U | 1
A126C | 0.52
A126G | 0.84
A126U | 0.78
A111G U124A | 0.02
A114G A117U | 0.4
C121A A140G | 1.61
A116U U124A | 0.08
A114U U131C | 0.02
A116U A129G | 0.13
G115A U131C | 0.04
A114U U133C | 0.14
A114G A134U | 0.23
U122C U130C | 0.64

Variant | self-cleavage
G123U G136A | 2.35
U124A A125G | 0.91
U127A U139C | 2.29
G123A A129C | 0.92
U122C A140C | 1.25
A118G U122C | 1.04
A117G A135G | 2.66
A116U G138U | 0.03
U124C U139C | 0.91
A118G U124C | 1.37
A125G U130C | 0.53
A116G A126G | 0.12
A114G U120C | 0.18
U120A U133C | 1.41
A116G A118C | 0.15
A118G U139A | 0.92
A118G U139C | 1.43
U124A | 0.69
U124C | 0.62
U124G | 0.98
U124C A125U | 1.37
A118U | 0.61
A118G | 0.89
A118C | 0.97

Variant | self-cleavage
A126G U131C | 1.14
U127A U130C | 0.43
C113U A129G | 0.01
U124A A126G | 0.76
A116U U132A | 0.05
C113U U122C | 0.08
U122C A126G | 0.76
A125G A129G | 0.41
A111G G137A | 0.02
U122C A134G | 1.75
A117G U120A | 2.78
U122A U131C | 0.34
U122A U131G | 0.73
U124C A129G | 0.8
U124C A129U | 0.94
G115A A116G | 0.23
G123A | 1.06
G123C | 1.16
G123U | 1.59
U122A A140G | 1.17
A118G G138A | 1.14
A129G U130A | 1.41
A129G U130C | 1.73
A118G U130C | 0.73

Variant | self-cleavage
A116G U124A | 0.69
A118U U127A | 0.97
A116G U131A | 0.25
A116G A134U | 0.2
U122A A134G | 0.73
A118C U122A | 1.12
A116G A129G | 0.41
A125G U131C | 0.2
A116U G136A | 0.07
G115C | 0.14
G115A | 0.12
G115U | 0.23
A116G A140U | 0.92
A116G A140G | 0.97
U120G U130C | 1.46
A116U A117G | 0.15
A118G A135G | 1.15
A117U U122C | 1.24
A111G U132C | 0.03
A111G U132A | 0.02
U120C U130C | 0.3
A118U U130G | 0.71
A118G U131C | 0.63
U122C G137C | 1.67

Variant | self-cleavage
A114G U122C | 0.16
A114G U122A | 0.39
A114U A129G | 0.06
A116G U133G | 0.82
A126G U139C | 1.19
U120C A140G | 1.07
G115U U131C | 0.06
C121A U127C | 0.2
A126G G136A | 1.4
G123C A135G | 0.78
A117C U120A | 1.28
A111G U120A | 0
A125G G138A | 0.47
A125G G138C | 0.83
A125U | 1.81
A125G | 0.56
A125C | 0.46
A126G U133C | 1.2
U122G A129G | 1.33
A111U A134G | 0.03
A114U A125U | 0.08
A114C U122C | 0.01
A117G U127C | 0.77
G115U A117G | 0.39

Variant | self-cleavage
U127C U132C | 0.86
U127C U132G | 1.62
A117C | 0.55
A117G | 1.4
A117U | 0.59
C113U A117G | 0.08
A116C U133C | 0.28
U120C A134G | 1.3
A114U | 0.06
A114C | 0.04
A114G | 0.45
A117G A118C | 0.24
U120C U127A | 0.21
A125G U133C | 1.09
A125U U133C | 2.54
A129G U132C | 1.16
A116G U127C | 0.31
A116G U127A | 0.72
U127A A135G | 2.31
U127A A135U | 2.12
A118G C128U | 0.61
U127C A140G | 0.73
A111U U122C | 0.08
